Kd data for 1 molecule are collected here from publication PMC11574045 (2024).

In general, Kd refers to the constant that tells how readily two partners part at equilibrium.

This assay deals with GLUP (macrocyclic version of glup) (disulfide-cyclization and C-terminal amidation (results); head-to-side-chain cross-linking with 1,3-dibromomethylbenzene (methods)).

B1: TEAD4, purified recombinant protein (natural protein)
chain: PAPPWQGRSVASSKLWMLEFSAFLEQQQDPDTYNKHLFVHIGQSSPSYSDPYLEAVDIRQIYDKFPEKKGGLKDLFERGPSNAFFLVKFWADLNTNIEDEGSSFYGVSSQYESPENMIITCSTKVCSFGKQVVEKVETEYARYENGHYSYRIHRSPLCEYMINFIHKLKHLPEKYMMNSVLENFTILQVVTNRDTQETLLCIAYVFEVSASEHGAQHHIYRLVKE
In turn, B1 had a Kd of 4.55 µM.
